Source: US20260226158A1

Molecular target: human NKp46 on human NKp46-expressing CHO-K1 cells (human) (UniProt O76036)
Test: flow cytometry on human NKp46-expressing CHO-K1 cells, Alexa Fluor 647 anti-human IgG; upper row of the box

Sequence of human NKp46 on human NKp46-expressing CHO-K1 cells (human) (O76036 22-304): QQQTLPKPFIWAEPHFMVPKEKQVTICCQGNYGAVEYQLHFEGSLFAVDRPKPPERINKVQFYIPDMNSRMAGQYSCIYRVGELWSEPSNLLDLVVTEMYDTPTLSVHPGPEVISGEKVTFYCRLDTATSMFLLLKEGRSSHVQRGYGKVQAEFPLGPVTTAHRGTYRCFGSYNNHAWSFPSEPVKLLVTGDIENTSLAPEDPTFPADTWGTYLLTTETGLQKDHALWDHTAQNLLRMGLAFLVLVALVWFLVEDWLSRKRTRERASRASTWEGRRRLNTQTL

Geometric Mean : Alexa Fluor 647-H: 206
Substance: Human IgG (antibody)
